{
  "source": "paper PMC11385703",
  "about": "(Structure(London, England:1993), 2024)",
  "binders": {"B1": {"name": "2554_01_D11 Fab (Fab, V domains shown)", "VH": "QVQLVQSGAEVKKPGSSVKVSCKASGGTFSSYAISWVRQAPGQGLEWMGGIIPIFGTANYAQKFQGRVTITADESTSTAYMELRSLRSDDTAVYYCARDNLGYCSGGSCYSDYYYYYMDVWGQGTLVTVSS", "VL": "NFMLTQPRSVSESPGKTVTISCTRSSGSIGSDYVHWYQQRPGSSPTTVIYEDNQRPSGVPDRFSGSIDSSSNSASLTISGLKTEDEADYYCQSYDRSNHEVVFGGGTKLTVL"}, "B2": {"name": "TPL0197_01_C08 Fab (Fab, V domains shown)", "VH": "EVQLVQSGAEVKKPGASVKVSCKASGYTFTSYGISWVRQAPGQGLEWMGWISAYNGNTNYAQKLQGRVTMTTDTSTSTAYMELRSLRSDDTAVYYCAREEYCSSTSCYVGNYYGMDVWGQGTLVTVSS", "VL": "DIQMTQSPSSLSASVGDRVTITCQASQDISNYLNWYQQKPGKAPKLLIYAASSLESGVPSRFSGSGSGTEFTLTITNLQVDDFATYYCQRYDSNFAFGQGTKVEIK"}, "B3": {"name": "IgG: TPL0039_05_E02-YTE (antibody, V domains shown)", "VH": "QVQLLESGGGLVQPGRSLRLSCAASGFTFSSYGLHWVRQAPGKGLEWVAVISYDGSNKYYADSVKGRFTISRDNSKNTLYLQMNSLRAEDTAVYYCASTLQQLDAFDIWGQGTLVTVSS", "VL": "NFMLTQPHSVSESPGKTVTISCTRSSGSIASNYVQWYQQRPGTSPTIMIYEDNQRPSGVPDRFSGAIDSSSNSASLTISGLKTEDEADYYCQSYDSSSVVFGGGTKVTVL", "notes": "copies: 2 + 2"}, "B4": {"name": "Fab: 2555_01_A01 (Fab, V domains shown)", "VH": "QVQLVQSGAEVKKPGSSVKVSCKASGGTFSSYAISWVRQAPGQGLEWMGGIIPIFGTANYAQKFQGRVTITADESTSTAYMELRSLRSDDTAVYYCARDNLGYCSGGSCYSDYYYYYMDVWGQGTLVTVSS", "VL": "SYELTQPPSVSVAPGRTATITCEGDNIGQQIVHWYQQKPGQAPVAVISSDSDRPSGIPERFSGSNSGNTATLTISRVEAGDEADYYCQVWDSGSDHVVFGGGTKVTVL", "notes": "also called Fab A01; source: purified"}, "B5": {"name": "Fab: 2554_01_D11 (Fab, V domains shown)", "VH": "QVQLVQSGAEVKKPGSSVKVSCKASGGTFSSYAISWVRQAPGQGLEWMGGIIPIFGTANYAQKFQGRVTITADESTSTAYMELRSLRSDDTAVYYCARDNLGYCSGGSCYSDYYYYYMDVWGQGTLVTVSS", "VL": "NFMLTQPRSVSESPGKTVTISCTRSSGSIGSDYVHWYQQRPGSSPTTVIYEDNQRPSGVPDRFSGSIDSSSNSASLTISGLKTEDEADYYCQSYDRSNHEVVFGGGTKLTVL", "notes": "also called Fab D11; source: purified"}, "B6": {"name": "IgG: TPL0197_01_C08-YTE (antibody, V domains shown)", "VH": "EVQLVQSGAEVKKPGASVKVSCKASGYTFTSYGISWVRQAPGQGLEWMGWISAYNGNTNYAQKLQGRVTMTTDTSTSTAYMELRSLRSDDTAVYYCAREEYCSSTSCYVGNYYGMDVWGQGTLVTVSS", "VL": "DIQMTQSPSSLSASVGDRVTITCQASQDISNYLNWYQQKPGKAPKLLIYAASSLESGVPSRFSGSGSGTEFTLTITNLQVDDFATYYCQRYDSNFAFGQGTKVEIK", "notes": "also called IgG1 C08; source: CHO cells, transiently expressed, purified; copies: 2 + 2"}, "B7": {"name": "IgG: 2555_01_A01-YTE (antibody, V domains shown)", "VH": "QVQLVQSGAEVKKPGSSVKVSCKASGGTFSSYAISWVRQAPGQGLEWMGGIIPIFGTANYAQKFQGRVTITADESTSTAYMELRSLRSDDTAVYYCARDNLGYCSGGSCYSDYYYYYMDVWGQGTLVTVSS", "VL": "SYELTQPPSVSVAPGRTATITCEGDNIGQQIVHWYQQKPGQAPVAVISSDSDRPSGIPERFSGSNSGNTATLTISRVEAGDEADYYCQVWDSGSDHVVFGGGTKVTVL", "notes": "also called IgG1 A01; source: CHO cells, transiently expressed, purified; copies: 2 + 2"}, "B8": {"name": "IgG: TPL0039_05_B12-YTE (antibody, V domains shown)", "VH": "EVQLVESGGGVVQPGRSLRLSCAASGFTFSSYGMHWVRQAPGKGLEWVAVISYDGSNKYYADSVKGRFTISRDNSKNTLYLQMNSLRAEDTAVYYCAGWTEGDAFDIWGQGTLVTVSS", "VL": "NFMLTQPHSVSESPGKTVTISCTRSSGSIASNYVQWYQQRPGSAPSTVIYEDNRRPSGVPDRFSGSIDSASNSASLTISGLKTEDEADYYCQSYDSSSVVFGGGTKITVL", "notes": "copies: 2 + 2"}, "B9": {"name": "IgG: TPL0039_05_B04-YTE (antibody, V domains shown)", "VH": "EVQLLESGGGVVQPGRSLRLSCAASGFTFSSYGMHWVRQAPGKGLEWVAVISYDGSNKYYADSVKGRFTISRDNSKNTLYLQMNSLRAEDTAVYYCARVGENEAFDIWGQGTMVTVSS", "VL": "NFMLTQPHSVSESPGKTVTISCTRSSGSIARNYVQWYQQRPGSAPTTVIYEDNQRPSGVPDRFSGSIDSSSNSASLTISGLKTEDEADYYCQSYDSSTVVFGGGTKLTVL", "notes": "also called IgG1 B04-YTE; source: CHO cells, transiently expressed, purified; copies: 2 + 2"}},
  "settings_in_all_cases": "both partners purified",
  "key": {"[1]": {"target": "T1, α-cobratoxin, biotinylated (Naja kaouthia, UniProt P01391, biotin (EZ-Link NHS-PEG4-Biotin, 1:1.25 toxin:biotinylation reagent molar ratio))", "T1 sequence (P01391 whole entry)": "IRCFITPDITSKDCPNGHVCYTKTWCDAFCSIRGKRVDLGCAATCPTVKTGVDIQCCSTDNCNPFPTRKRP", "test": "BLI; […]) biosensors; […]; dissociation for 600 s in HEPES-MES pH 7.4; 25°C; 1:1 binding model, […]"}, "[2]": {"target": "T1, α-cobratoxin, biotinylated", "test": "BLI; […]) biosensors; […]; dissociation for 600 s in HEPES-MES pH 5.5; 25°C; 1:1 binding model, […]"}, "[3]": {"target": "T1, α-cobratoxin, biotinylated", "test": "BLI; […]) biosensors; […]; dissociation for 600 s in HEPES-MES pH 5.0; 25°C; 1:1 binding model, […]"}, "[4]": {"target": "T1, α-cobratoxin, biotinylated", "test": "BLI; […]) biosensors; […]; dissociation for 600 s in HEPES-MES pH 6.5; 25°C; 1:1 binding model, […]"}, "[5]": {"target": "T1, α-cobratoxin, biotinylated", "test": "BLI; […]) biosensors; […]; dissociation for 600 s in HEPES-MES pH 4.5; 25°C; 1:1 binding model, […]"}, "[6]": {"target": "T1, α-cobratoxin, biotinylated", "test": "BLI; […]) biosensors; […]; dissociation for 600 s in HEPES-MES pH 3.5; 25°C; 1:1 binding model, […]"}, "[7]": {"target": "T1, α-cobratoxin, biotinylated", "test": "BLI; […]) biosensors; […]; association in HEPES-MES pH 7.4 for 300 s, dissociation in HEPES-MES pH 5.5 for 600 s; 1:1 binding model, […]"}, "[8]": {"target": "T1, α-cobratoxin, biotinylated", "test": "BLI; […]) biosensors; […]; dissociation for 600 s in HEPES-MES pH 6.0; 25°C; 1:1 binding model, […]"}, "[9]": {"target": "T1, α-cobratoxin, biotinylated", "test": "BLI; […]) biosensors; […]; dissociation for 600 s in HEPES-MES pH 4.0; 25°C; 1:1 binding model, […]"}, "[10]": {"target": "T1, α-cobratoxin, biotinylated", "test": "BLI; […]) biosensors; […]; association in HEPES-MES pH 7.4 for 300 s, dissociation in HEPES-MES pH 7.4 for 600 s; 1:1 binding model, […]"}, "biotinylated myotoxin II": {"target": "biotinylated myotoxin II (Bothrops asper, UniProt P24605, biotin (EZ-Link NHS-PEG4-Biotin, 1:1.25 toxin:reagent molar ratio))", "sequence (P24605 17-137)": "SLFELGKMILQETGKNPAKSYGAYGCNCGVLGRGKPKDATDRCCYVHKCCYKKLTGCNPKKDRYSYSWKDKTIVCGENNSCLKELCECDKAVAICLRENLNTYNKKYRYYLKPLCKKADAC", "test": "BLI"}, "[11]": {"target": "T2, biotinylated α-cobratoxin (Naja kaouthia, UniProt P01391)", "T2 construct": "source: bought: Latoxan, then biotinylated", "T2 sequence (P01391 whole entry)": "as the sequence (P01391 whole entry) above", "test": "BLI"}, "α-cobratoxin": {"target": "T3, α-cobratoxin (Naja kaouthia, UniProt P01391)", "T3 construct": "source: bought: Latoxan", "test": "SPR; […] (Biacore 8K, 25°C); […]; dissociation 300 s in running buffer of pH 7.4 or 5.5"}, "myotoxin II": {"target": "T4, myotoxin II (Bothrops asper, UniProt P24605)", "T4 construct": "source: purified from the venom of B. asper (CM-Sephadex C25, RP-HPLC)", "T4 sequence (P24605 17-137)": "as the sequence (P24605 17-137) above", "test": "[…] (1:20) in PBS pH 7.4 and pH 6, 1 h at room temperature"}},
  "data": [
    {"binder": "B1", "values": [
      {"measurement": "koff", "setting": "[1]", "result": 0.00026, "unit": "s⁻¹"},
      {"measurement": "koff", "setting": "[2]", "result": 0.00039, "unit": "s⁻¹"},
      {"measurement": "koff", "setting": "[3]", "result": 0.00043, "unit": "s⁻¹"},
      {"measurement": "koff", "setting": "[4]", "result": 0.00027, "unit": "s⁻¹"},
      {"measurement": "koff", "setting": "[5]", "result": 0.00065, "unit": "s⁻¹"},
      {"measurement": "koff", "setting": "[6]", "result": 0.0036, "unit": "s⁻¹"},
      {"measurement": "Kd", "setting": "[7]", "result": 8.7, "unit": "nM"},
      {"measurement": "koff", "setting": "[7]", "result": 0.0004, "unit": "s⁻¹"},
      {"measurement": "kon", "setting": "[7]", "result": 46000, "unit": "M⁻¹ s⁻¹"},
      {"measurement": "koff", "setting": "[8]", "result": 0.0003, "unit": "s⁻¹"},
      {"measurement": "koff", "setting": "[9]", "result": 0.001, "unit": "s⁻¹"}
    ]},
    {"binder": "B2", "values": [
      {"measurement": "koff", "setting": "[1]", "result": 0.00069, "unit": "s⁻¹"},
      {"measurement": "koff", "setting": "[2]", "result": 0.0041, "unit": "s⁻¹"},
      {"measurement": "koff", "setting": "[3]", "result": 0.0073, "unit": "s⁻¹"},
      {"measurement": "koff", "setting": "[4]", "result": 0.00077, "unit": "s⁻¹"},
      {"measurement": "koff", "setting": "[5]", "result": 0.054, "unit": "s⁻¹"},
      {"measurement": "koff", "setting": "[6]", "result": 1.2, "unit": "s⁻¹"},
      {"measurement": "koff", "setting": "[7]", "result": 0.0058, "unit": "s⁻¹"},
      {"measurement": "kon", "setting": "[7]", "result": 3800, "unit": "M⁻¹ s⁻¹"},
      {"measurement": "koff", "setting": "[8]", "result": 0.0015, "unit": "s⁻¹"},
      {"measurement": "Kd", "setting": "[10]", "result": 64, "unit": "nM"},
      {"measurement": "koff", "setting": "[10]", "result": 0.00085, "unit": "s⁻¹"},
      {"measurement": "kon", "setting": "[10]", "result": 11000, "unit": "M⁻¹ s⁻¹"},
      {"measurement": "koff", "setting": "[9]", "result": 0.28, "unit": "s⁻¹"}
    ]},
    {"binder": "B3", "values": [
      {"measurement": "Kd", "setting": "biotinylated myotoxin II", "result": "< 0.001", "unit": "nM"},
      {"measurement": "koff", "setting": "biotinylated myotoxin II", "result": "< 1e-07", "unit": "s⁻¹"}
    ]},
    {"binder": "B4", "values": [
      {"measurement": "binding result", "setting": "[11]", "result": "binds"}
    ]},
    {"binder": "B5", "values": [
      {"measurement": "binding result", "setting": "[11]", "result": "binds"}
    ]},
    {"binder": "B6", "values": [
      {"measurement": "binding result", "setting": "α-cobratoxin", "result": "binds"}
    ]},
    {"binder": "B7", "values": [
      {"measurement": "binding result", "setting": "α-cobratoxin", "result": "binds"}
    ]},
    {"binder": "B8", "values": [
      {"measurement": "Kd", "setting": "biotinylated myotoxin II", "result": "< 0.001", "unit": "nM"}
    ]},
    {"binder": "B9", "values": [
      {"measurement": "stoichiometry N", "setting": "myotoxin II", "result": 2, "unit": "antigen per IgG1"}
    ]}
  ]
}
